In one assay the target is PCSK9-LDLR interaction (Homo sapiens, UniProt Q8NBP7). Briefly: AlphaScreen PCSK9-LDLR interaction assay. Type of assay: binding. The method, then: AlphaScreen® (Perkin Elmer) streptavidin donor beads were coated with purified biotin-conjugated PCSK9 and AlphaScreen® nickel chelate acceptor beads were coated with purified His6-conjugated LDLR ectodomain. Competition in the AlphaScreen® PCSK9-LDLR interaction assay was measured, in the presence of increasing concentrations of AnxA2-derived peptides, as a reduction of fluorescence.
A general note: Alpha assays give light when donor and acceptor beads are brought close together.

Assay [1] concerns the target T1, PCSK9-V5 (Homo sapiens, UniProt Q8NBP7). Put plainly: Hexa-His pull-down assay. To be noted: 20 μg protein immobilized on cobalt chelate resin. Also noted: made in house; host or cells: CHO-K1 cells (conditioned medium, not purified). The format is binding. The method, then: 20 μg of purified AnxA2-(His)6 or AnxA1-(His)6 or no proteins (for negative control) were immobilized onto a cobalt chelate resin (Thermo Scientific). The resin was then washed several times with 40 mM immidazole and incubated overnight at 4° C. with 800 μl of conditioned media from PCSK9-V5-transfected CHO-K1 cells containing 40 mM immidazole. The resin was then washed several times with immidazole (40 mM), heated in reducing Laemmli sample buffer and centrifuged. Supernatants were analyzed by Western blot as described above using the anti-V5-HRP or anti-His-HRP antibodies.
Target sequence in this assay (Q8NBP7 153-692): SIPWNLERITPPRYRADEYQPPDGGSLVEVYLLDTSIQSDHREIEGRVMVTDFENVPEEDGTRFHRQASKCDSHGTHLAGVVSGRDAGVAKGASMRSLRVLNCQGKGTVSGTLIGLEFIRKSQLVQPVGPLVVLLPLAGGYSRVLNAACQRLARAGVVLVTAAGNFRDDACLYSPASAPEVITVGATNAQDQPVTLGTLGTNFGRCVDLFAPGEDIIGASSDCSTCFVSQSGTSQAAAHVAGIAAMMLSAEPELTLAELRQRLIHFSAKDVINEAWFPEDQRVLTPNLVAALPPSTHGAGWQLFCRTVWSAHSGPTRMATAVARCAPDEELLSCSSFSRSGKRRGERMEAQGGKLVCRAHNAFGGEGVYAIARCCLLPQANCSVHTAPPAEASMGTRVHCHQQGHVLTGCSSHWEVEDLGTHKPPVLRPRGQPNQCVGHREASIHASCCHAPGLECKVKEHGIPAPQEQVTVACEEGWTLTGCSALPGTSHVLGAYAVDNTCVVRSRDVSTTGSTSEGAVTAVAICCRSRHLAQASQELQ
Target sequence in this assay (Q8NBP7 31-152 partner limits assumed): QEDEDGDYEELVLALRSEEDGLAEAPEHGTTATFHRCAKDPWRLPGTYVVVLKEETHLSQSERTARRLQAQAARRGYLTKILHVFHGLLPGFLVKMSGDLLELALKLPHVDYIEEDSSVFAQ

Another assay has as its system LDLR. Briefly: LDLR Western blot of transfected HEK293 cells. The format is cell-based, human. To be noted: HEK293 cells (negligible PCSK9), with or without p11. The method, then:
HepG2, HuH7, COS-1, BSC40 and HEK293 cell were grown in Dulbecco's modified Eagle's medium (DMEM) with 10% fetal bovine serum (FBS; Gibco), whereas CHO-K1 and CHO-K1 mutant Pgsd-677 cells that lack heparan sulfate proteoglycans^26 were grown in Ham's F12:DMEM (50:50) media with 10% FBS. Y1 mouse adrenal cells were grown in F12K medium with 15% horse serum and 2.5% FBS. All cells were maintained at 37° C. under 5% CO2. At 80-90% confluence, HuH7 and CHO-K1 cells were transiently transfected with Lipofectamine™ 2000 (Invitrogen), HEK293 cells were transfected with Effectene™ (Qiagen) and HepG2 cells were transfected with Fugene™ HD (Roche). […] For analysis of the various AnxA2 mutants in HEK293 cells, 24 h post-transfection, the cells were washed and then incubated for another 24 h in complete medium containing 50 μM of the proteasome inhibitor ALLN (Calbiochem). Stable transfectants of shRNA-AnxA2 were obtained in HuH7 cells following puromycin selection.
Western blotting experiments were made on samples that were reduced in Laemmli buffer, heated and resolved on 8% glycine SDS-PAGE gels. Separated proteins were then electro-transferred onto nitrocellulose, and probed with HRP-conjugated anti-V5 or anti-HA tags or with primary antibodies. […] Quantitation of band intensity was done with the ImageJ™ software version 1.37 (Wayne Rasband, National Institutes of Health, Bethesda, Md.).

Assay [2] deals with T1, PCSK9-V5. Briefly: Co-immunoprecipitation in co-transfected CHO-K1 cells. To be noted: co-expression in CHO-K1 cells. The format is binding. Also noted: expressed in transfected cells; host or cells: CHO-K1 cells co-transfected with AnxA1-HA, AnxA2-HA or AnxA2-HA and p11. The method, then:
For immunoprecipitation cell lysates were incubated overnight at 4° C. with anti-V5-agarose beads (Sigma) and washed 5 times with cold lysis buffer.
Target sequence in this assay (Q8NBP7 153-692): as the sequence (Q8NBP7 153-692) above

Sequence of PCSK9-LDLR interaction (Q8NBP7 153-692): as above
Sequence of PCSK9-LDLR interaction (Q8NBP7 31-152 partner limits assumed): as the sequence (Q8NBP7 31-152 partner limits assumed) above

Take “GSVKAYTNFDAERDALNIETAIKTKGVDEVTIVNILTNRSNAQRQDIAFAYQRRTKKELASALKSALSGHLET [No 896970, 73-mer AnxA2 R1 peptide extending from amino acids 25 to 97]”: the “inhibition of the PCSK9-LDLR interaction” value against PCSK9-LDLR interaction (10 uM (not shown)) is reported as “up to 90%”. As for “peptide extending from amino acid 49 to 97: shorter AnxA2-derived peptide extending from amino acid 49 to 97 (KGVDEVTIVNILTNRSNAQRQDIAFAYQRRTKKELASALKSALSGHLET; HOMO SAPIENS)”, the “inhibitory activity on the PCSK9-LDLR ectodomain interaction” value in the assay with PCSK9-LDLR interaction was “inhibits the interaction between PCSK9 and the ectodomain of LDLR however to a lesser extent”.

B1: AnxA1-(His)6: purified His-tagged Annexin A1 purchased from EMD biosciences (protein)
chain: MAMVSEFLKQAWFIENEEQEYVQTVKSSKGGPGSAVSPYPTFNPSSDVAALHKAIMVKGVDEATIIDILTKRNNAQRQQIKAAYLQETGKPLDETLKKALTGHLEEVVLALLKTPAQFDADELRAAMKGLGTDEDTLIEILASRTNKEIRDINRVYREELKRDLAKDITSDTSGDFRNALLSLAKGDRSEDFGVNEDLADSDARALYEAGERRKGTDVNVFNTILTTRSYPQLRRVFQKYTKYSKHDMNKVLDLELKGDIEKCLTAIVKCATSKPAFFAEKLHQAMKGVGTRHKALIRIMVSRSEIDMNDIKAFYQKMYGISLCQAILDETKGDYEKILVALCGGNHHHHHH
For B1, the “PCSK9-V5 bound in pull-down” value with PCSK9-V5 [1] is reported as “does not”.

B2: AnxA1: human Annexin A1, closely related family member used as control (protein, UniProt P04083 2-346, looked up)
Annexin A1: AMVSEFLKQAWFIENEEQEYVQTVKSSKGGPGSAVSPYPTFNPSSDVAALHKAIMVKGVDEATIIDILTKRNNAQRQQIKAAYLQETGKPLDETLKKALTGHLEEVVLALLKTPAQFDADELRAAMKGLGTDEDTLIEILASRTNKEIRDINRVYREELKRDLAKDITSDTSGDFRNALLSLAKGDRSEDFGVNEDLADSDARALYEAGERRKGTDVNVFNTILTTRSYPQLRRVFQKYTKYSKHDMNKVLDLELKGDIEKCLTAIVKCATSKPAFFAEKLHQAMKGVGTRHKALIRIMVSRSEIDMNDIKAFYQKMYGISLCQAILDETKGDYEKILVALCGGN
Turning to B2, the “levels of endogenous LDLR” value in the assay on LDLR is given as “None of these treatments affected the levels of endogenous LDLR”. Further, in the assay with PCSK9-V5 [2], the “co-immunoprecipitation with PCSK9-V5” value is “not”.
